# Measurements reported in PMC3282623, “High-pressure-induced water penetration into 3-isopropylmalate dehydrogenase” (Acta Crystallographica Section D: Biological Crystallography, 2012).
# B1: 3-isopropylmalate dehydrogenase (IPMDH) from Shewanella oneidensis MR-1 (enzyme)
# chain: SYQIAVLAGDGIGPEVMAEARKVLKAVEARFGLNIEYTEYDVGGIAIDNHGCPLPEATLKGCEAADAILFGSVGGPKWEKLPPNEQPERGALLPLRGHFELFCNLRPAKLHDGLEHMSPLRSDISARGFDVLCVRELTGGIYFGKPKGRQGEGESEEAFDTMRYSRREISRIARIAFEAARGRRKKVTSVDKANVLACSVLWRQVVEEVAVDFPDVELEHIYIDNATMQLLRRPDEFDVMLCSNLFGDILSDEIAMLTGSMGLLSSASMNSTGFGLFEPAGGSAPDIAGKGIANPIAQILSAALMLRHSLKQEEAASAIERAVTKALNSGYLTGELLSSDQRHKAKTTVQMGDFIADAVKAGV
# notes: 3-isopropylmalate dehydrogenase, product of the leuB gene of Shewanella oneidensis MR-1, subcloned into the BamHI/HindIII sites of pQE-80L (vector pQE-MR1-leuB); Crystallised in complex with its substrate 3-isopropylmalate (IPM) and a divalent cation; the two subunits of the dimer are related by the crystallographic twofold axis; also called SoIPMDH
# Molecular target: the molecule itself
# Test: crystal structure; crystals of the SoIPMDH-IPM complex, space group C2, room temperature, in a glass capillary (0.1 MPa) or a diamond anvil cell (160, 340, 410, 580 and 650 MPa); 18% PEG 3350, 100 mM Na HEPES pH 7.0, 200 mM calcium acetate, 10 mM magnesium chloride, 10 mM IPM
protein,measurement,value
B1,stoichiometry N,2
